Results taken from PMC6100598, “Characterization of Small Molecules Inhibiting the Pro-Angiogenic Activity of the Zinc Finger Transcription Factor Vezf1” (Molecules : A Journal of Synthetic Chemistry and Natural …, 2018).
“And” between values parts separate entries of the source, which are not always exact repeats. Equal entries are not always repeated. Values belong to the compound of their own block, whether it stands above or below them.

How the values were obtained:
Vezf1 (His-Vezf1) = target: T1, Vezf1 (His-Vezf1) (UniProt Q5SXC4); experiment: EMSA; details: 20 mM Hepes pH 7.5, 10 mM MgCl2, 50 mM NaCl, 1 mM EDTA, 5 ng/uL poly dA.dT, 10 min at room temperature, 5% acrylamide gel in 0.5x TBE
T1 sequence: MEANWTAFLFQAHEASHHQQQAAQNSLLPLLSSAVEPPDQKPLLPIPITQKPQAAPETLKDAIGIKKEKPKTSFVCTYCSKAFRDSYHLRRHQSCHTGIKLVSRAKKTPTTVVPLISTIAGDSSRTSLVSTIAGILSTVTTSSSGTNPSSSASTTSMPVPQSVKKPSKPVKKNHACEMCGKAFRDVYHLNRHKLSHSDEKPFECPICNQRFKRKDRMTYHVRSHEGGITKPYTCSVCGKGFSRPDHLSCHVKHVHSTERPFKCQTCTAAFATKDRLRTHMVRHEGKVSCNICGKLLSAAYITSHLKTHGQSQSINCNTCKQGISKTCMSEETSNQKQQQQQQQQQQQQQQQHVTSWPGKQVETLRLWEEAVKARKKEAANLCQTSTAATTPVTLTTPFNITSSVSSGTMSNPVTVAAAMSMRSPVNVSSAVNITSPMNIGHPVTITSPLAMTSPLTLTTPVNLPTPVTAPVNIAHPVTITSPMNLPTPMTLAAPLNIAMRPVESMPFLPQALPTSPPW

[1] = target: T2, Vezf1 (recombinant His-Vezf1) (Mus musculus, UniProt Q5SXC4); experiment: EMSA, single dose; details: 640 nM Vezf1, 25 nM 32P-DNA, 10 min pre-incubation; residual DNA binding, not per cent inhibition; value without compound not given
T2 construct: N-terminal His6 tag (pQE10), kept; E. coli XLBlue (MRF, T7); Ni-NTA; residue borders not given; native protein about 65 kDa, six C2H2 zinc fingers
T2 sequence (Q5SXC4 1-518): T1 sequence

[2] = target: T2, Vezf1 (recombinant His-Vezf1); experiment: EMSA, inhibition of Vezf1 binding to […]-labelled DNA; details: 1 μM or 640 nM (Figure 5C) Vezf1, 25 nM 32P-DNA (HS4-FPIII site), 10 min pre-incubation, 10 mM MgCl2, Hepes 7.5, room temperature; also called effective blocking concentration

Compound: AGGCGCGCCCCGGTCCGGCGCTCCCCCCGCATCCCCGAGCCGGGGCGCGCCT (double strand) [HS4-FPIII Vezf1 site duplex]
binding signal (Vezf1 (His-Vezf1); 500 uM NSC1012, 640 nM Vezf1): 7.38 % DNA bound
binding signal (Vezf1 (His-Vezf1); 500 uM T4 (503-1-83), 640 nM Vezf1, T4 effective at 20 uM (IC50)): 5.94 % DNA bound
binding signal (Vezf1 (His-Vezf1); 500 uM T6 (503-1-71 in text; 501-1-71 in Fig 5B legend), 640 nM Vezf1): 5.92 % DNA bound
binding signal (Vezf1 (His-Vezf1)): 22.6 % DNA bound and 38.5 % DNA bound
Kd (Vezf1 (His-Vezf1); no inhibitor, 25 nM DNA, 50-1000 nM protein): 0.64 µM

% DNA Bound in EMSA (500 μM) [1]: 22.56%
Compound: Cc1c(S(=O)(=O)O)ccc(N=Nc2c(O)c(C(=O)O)cc3ccccc23)c1Cl [compound 2, NSC16087]

Activity Concentration [2]: ~ 500 μM
Compound: O=C(O)c1ccccc1NC(c1ccccc1)c1ccc2cccnc2c1O (centres unmarked) [compound 1, NSC1012]

% DNA Bound in EMSA (500 μM) [1]: 38.45%
Compound: NC(=O)c1nnn(Cc2cc(Cl)c(C(=O)c3ccc(Cl)cc3)c(Cl)c2)c1N [compound 3, NSC609974]
